The record followed here is the nanobody polyreactivity screen of Harvey et al. (2022).

The data set in a line: yeast display, Sf9 membrane polyspecificity reagent, FACS + sequencing; frameworks hold sequencing errors. Summed up: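 Using colony PCR, genes from sorted yeast display clones were amplified, then sequenced on MiSeq at 2 × 250 and filtered by CDR length. The clones had been stained with 10% biotinylated, detergent-solubilized Sf9 membrane reagent for 1 hour at 4 °C and sorted by FACS into low and high (top ~1%) gates on anti-HA and streptavidin fluorescence. Polyreactivity labels come from the gate of origin.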
In the case of “QVQLVESGGGLVQAGGSLRLSCAASGSIFKTYAMGWYRQAPGKERELVAAITSSGGSTYYADSVKGRFTISRDNAKNTVYLQMNSLKPEDTAVYYCNARYWGYWGDHYDYWGQGTQVTVSS”, the “polyreactivity (PSR sort gate)” value was “high polyreactivity”. For “QVQLVESGGGLVQAGGSLRLSCASSGLIFWKYAMVWYRQAPGKERELVAAIRKSVGSTYYADSVKGRFTISRDNAKNTVFLQMNSLKPEDTAVYFCAAVYAGVGSQVKPDYCGQGTQVTVSS”, the “polyreactivity (PSR sort gate)” value is “high polyreactivity”. Regarding “QVQLVESGVGLVQAGGSLSITCAASGRTFAGNSMGSYRQAPGKERELVAAISQGGGSTYYADSVKGRFTISRDNAKNTVYLQMNSRKAEDTAVYYCAAEIPRRWASFATQWYDYWGLGTQVTVSS”, the “polyreactivity (PSR sort gate)” value is on record as “low polyreactivity”. Turning to “QVQLVESAGGLVQAGGSLRLSCAASGITFAWYAMGWYRQAPGKERELVAAITRGGGSTYYADSVKGRFTISRDNAKNTVYLQMNSLKPEATAVYYCAARPYSYPYGYWGQGTQVTVSS”, the “polyreactivity (PSR sort gate)” value is recorded as “low polyreactivity”. Take “QVQLVESVGGLVQAGGSLRLSCAASGSTYDHNAMGWSRHAPGKERELVAAISSDGSTNYADSVKGRFTISRDNAKNTVYLQMNSLKPEDTGVYYCNADGVYLGDYEYWGQGTQVTVSS”: the “polyreactivity (PSR sort gate)” value was “low polyreactivity”. “QVQLVESGGGLVQAGGSLRLSCAASGRTFYNAMGWYRQAPGKERELVAGIRWSGASTYYADSVKGRFTISRDNAKNTVYLQMNSLKPEDTAVYYCAARRHSTRLRLTYDYWGQGTQVTVSS”: the “polyreactivity (PSR sort gate)” value is “high polyreactivity”. On to “QVQLVESGGGLVQAGGSLRLSCAASGSTINYYAMGWYRQAPGKERELVAAISRRSGSTYYADSVKGRFTISRDNAKNTVYLQMNSLKPEDTAVYYCAAGYGGTFNWGQGTQVTVSS”, for which the “polyreactivity (PSR sort gate)” value was “high polyreactivity”. For “QVQLVESGGGLVQAGGSLRLSCAASGFTFYYYAMGWYRQAPGKERELVAAITSSGDSTFYADSVKGRFTISRDNAKNTVSLQMNSLKPEDTAVYYCAADRFQGRDDYWGQGTQGTVSS”, the “polyreactivity (PSR sort gate)” value is recorded as “high polyreactivity”. Under “QVQLQESGGGLVQAGGSLGCAASGNISTRSEMGWYRQAPGNEREFVATINSGGLTNYADSVKGRFTISRDNAKNTVNLRMNSLKPEDTAVYYRAVYGYFSDPYDYWGQGTQVTVSS” stands “low polyreactivity”; under “QVQLVESGGGLVQAGGSLRLSCAASGITFEYNAMGWYRQAPGKERELVATISGGARTYYADSVKGRFTISRDNAKNTVYLQMNSLKPEETAVYYCAAKYPWYGWFDHWGQGTQVTVSS”, “low polyreactivity”. Under “QVQLVESGGGLVQAGGSLRLSCAASGRIFSIYAMGWYRQAPGKERELVAAITRGGRTNYADSVKGRFTISRDNAKNTVYLQMNSLKPEDTAVYYCAARRIDGVVKPYDYWGQGTQVTVSS” stands “low polyreactivity”. Consider “QVQLVESGGGLVQAGGSLRLSCAASGFTFYYYTMGWYRQAPVKERELVAGITSRGGSTTYADSVKARFTISLDNAKNTVYLQMNSLKPEDTAVYYCNPLWAVHSGYDYLGQGTQVTVSS”, for which the “polyreactivity (PSR sort gate)” value is recorded as “high polyreactivity”. On to “QVQLVESGGGLVQAGGSLRLSCAPSGFTFLWYAMGWYRQAPGKERELVAGISSDGSTNADSVKGRFTISRDNAKNTVYLQMNSLKPEDTAVYYCDADYSSPWQAVQGDDYWGQGTQVNVSS”, for which the “polyreactivity (PSR sort gate)” value is “low polyreactivity”. With “QVQLVESGGGLVHAGGSLRLSCAASGRTFGWYAMGWYIQAPGKERELVASITHRGGRTYYADSVKGRFTISRDNAKHTVYLQMNSLNPEDTAVYYCAAKTSTGMGYWGQCTQVTVSS”, the “polyreactivity (PSR sort gate)” value was “high polyreactivity”.

As to “QVQLVESGGGLVQAGGSLRLSCAASGSTFAVYTMGWYRQAPGKEREMSTSYADSVKGRFTISRDNAKNTVYLQMTCLKPEDTAVYYCNRDFYEFDSNSYRFDYWGQGTQVTVSS”, the “polyreactivity (PSR sort gate)” value is on record as “low polyreactivity”. On to “QVQLVESGGGLVQAGGSLRLSCAASGLTFDVYTMGWYRQAPGKERELVAGITSGGSTDYADSVKGRFTISRDNAKNTVYLQMNSLKPEDTAVYYCNKPFPYYPDGPNGYDYWGQGTQVTVSS”, for which the “polyreactivity (PSR sort gate)” value is “low polyreactivity”. With “QVQLVESGGGLVQAGGSLRLSCAASGRTFVRNAMGWYRQAPGKERELVATIRSGGSTNYADSVKGRFTISRDNAKNTVYLQMNSLKPEDTAVYYCATQGSRARYDYYYWGQGTQVTVSS”, the “polyreactivity (PSR sort gate)” value is on record as “high polyreactivity”. Under “QVQLVESGGGLVQAGGSLRLSCAASGSIFGDNAMGWYRQAPRKERELVAVISSSGSTYYADSVKGRFTISRDNAKNTVFLQMNSLKPEDSAVYYCNAYQFDWYEEYYYWGQGTQVTVSS” stands “low polyreactivity”; under “QVQLVESGGGLVQAGGSLRLSCAASGFIFWRNAMGWYRQAPGKEREFVARISSSGGSTYYADSVKGRFTISRDNAKNTVYLQMNSLKPEDTAVYYCNADVWYRYGYFRYDYWGQGTQVTVSS”, “high polyreactivity”; under “QVQLVESGGGLVQAGGSLRLSCAASGLTFGYYAMVWYRQAPGKERELVAAINRSGNTNYADSVKGRFTISRDNAKNTVYLQMNCLKPEDTAVYYCAKRIWSILSPYKSSYGYDYWGQGSQVTVSS”, “low polyreactivity”. With “QVQLVESGGGLVQAGGSLRLSCAASGLTFYRYAMGWYRQAPGKERELVAAISSSGGSTYYADSVKGRFTISRDNAKNTVYLQMNSLKPEDTAVYYCAAKRVSVPYGYWGQGTQVTVSS”, the “polyreactivity (PSR sort gate)” value is “high polyreactivity”. As for “QVQLLESGRGLDQAGGSLRLSCAASGGTYKTNPMGMYRQAPGKEMELVAAITGSGTSTYYADSVKGRFTISRDYAKNTVYLQMNSLNPEDTAVYYCAADKLYHPGIGDDYWGQGTQETVSS”, the “polyreactivity (PSR sort gate)” value is “low polyreactivity”. As for “QVQLVESGGGLVQAGGSLRLSCAASGFTFQEYAMGWYRQAPGKERELVAVISSSGVRTYYADSVKGRFTISRDNAKNTVYLQMNSLKPEDTAVYYCAARRYHYIPSTKGNYWGQGTQVTVSS”, the entry is “high polyreactivity”; as for “QVQLVESGGGLVQAGGSLRLSCAASGRIFVRYVMGWYRLAPGKERELVAAINWNGGSTYYADSVKGRFTISRDNAKNTVYLQMNSLKPEDTAVYYGAARGQFYNTRGGYWGQGTQVTVSS”, “high polyreactivity”; as for “QVQLVESGGGLVQAGGSLRLSCAASGITFGSYAMGWYRQAPGKEREFVAAISLSGGNTYYADSVKGRFTISRDNAKNTVYLQMNSLKPEDTAVYYCAADYEYSGYGYWGQGTQVTGSS”, “high polyreactivity”. As for “QGQLVDSGGGLVQAAGSLRLSCDASGRTFVYNDMGWYRQAPGKERELVATISVSGCSTYYADSVKGRFTISRDNAKNTVYLQMISLKPEDTAVYYCAARRTWYEDHDYWGQGTQVTVSS”, the entry is “low polyreactivity”; as for “QVQLEESGGGLVQAGGSLRLSCAASGSTFVPNDMGGYRQAPGKERELVAAITDSGGSTYYADSVKGRFTISRDNAKNTVYLQMNSLKPEDTAVYYCAAEKAEWYYHTVWHFARGEYWGQGTQVTVSS”, “low polyreactivity”. Turning to “QVQLVESGGGLVQAGGSLRLSCAASGSTFSRYAMGWYRQAPGKEREFGAAISRRAGGTYYADSVKGRFTISRDNAKNTVYLQMNSLKPEDTAVYYCAKVLPRDYIGRATYDYWGQGTQVTVSS”, the “polyreactivity (PSR sort gate)” value is reported as “high polyreactivity”. “QVQLVESGGGLVQAGGSLRLSCAASGSIFWYYAMGWYRQAPGKERELVAAISTSGTSTYYADSVKGRFTISRDNAKNTVYLQMNSLKPEDSAVYYCAKRSGARHRLMDYWGQGTQVTVSS”: the “polyreactivity (PSR sort gate)” value is given as “low polyreactivity”. For the sequence “QVQLVESGGGLVQAGGSLRLIFAASGFTFGGYAMGWYRQGPGKERELVAGISYRGGSTYYADSVKGRFTISRDNAKNTVYLQMNSLKPEDTAVYYCAADRGYPGKVDYWGQGTQVTVSS”, the “polyreactivity (PSR sort gate)” value is “low polyreactivity”.

“QVQLVESGGGLVQAGGSLRLSCAASGRTCPRYGLGWYRQAPGKERELVATIRTGGRTNYADSVKGRFTISRDNAKNTVYLQMNSLKPEDTAVYYCATDSSKHPYSPTLLKFDYWGQGTQVTVSS”: the “polyreactivity (PSR sort gate)” value is given as “low polyreactivity”. “QVHLVESGGGLVQAGGSLRLSCAASGFTFVSYAMGWYRQAPGKESELVAAISWSSARTYYADSVKGRFTISRHNAKNTVYLQRNSLKPEDTAVYYCNAVRGFSSSRGGYNYWGQGTQVTVSS”: the “polyreactivity (PSR sort gate)” value is given as “high polyreactivity”.

Turning to “QVQLVESGGGLVHAGGSLRLSCAASGSIYYGNAMGWYIQAPGKERELVARISWSGSNTRYADSVKGRFTISRDNSKITVYLQMNSLKPEDTAVYYCNRGSYQTSFFRYDYWGQGTQVTVSS”, the “polyreactivity (PSR sort gate)” value is on record as “high polyreactivity”. For the sequence “QVQLVESGGGLVQAGGSLRLSCAASGRTFWYYDKGWYRQAPGKERELVAAITNGDRTYYADSVKGRFTISRDNAKNTVYLQMNSLKPEDTAVYYCAKETWGTRHDYWGQGTQVTVSS”, the “polyreactivity (PSR sort gate)” value was “high polyreactivity”.

For “QVQLVESGGGLVQAGGSLRLSCAASGTIFTDNVMGWYRQAPGKERELVAAITYSAASTYYADSVKGRFTISRDNAKNTVYLQMNSLKPEDTAVYYCNADDPDYLVSYRYDYWGQGTQVTVSS”, the “polyreactivity (PSR sort gate)” value is “low polyreactivity”. On to “QVQLVESGGGLVQAGGSLRLSCAASGSTFITYAMGWYRQAPGKERELVAAISTGGSTYYADSVKGRFTISRDNAKNTVYLQMNSLKPEDTAVYYCNAYSSSRGSTLQYSLQYDYWGQGTQVTVSS”, for which the “polyreactivity (PSR sort gate)” value is recorded as “low polyreactivity”.

With “QVQLVESGGGLVQAGGSLRLSCAASGRTFGRYALGWYRQAPGKERELVAAIRSGGSTYYADSVKGRFTISRDNAKNTVYLQMNSLKPEDTAVYYCAADIARHLTGFAYYRLDYWGQGTQVTVSS”, the “polyreactivity (PSR sort gate)” value is given as “low polyreactivity”.

With “QVQLVESGGGLVQAGGSLRLSCAPSGRIFTEYVMGWYRQAPGKERELVAAAITRGGSTNYADSVKGRFTISRDNAKNTVYLQMISLKPEDTAVYYFNKDDWPFSRQLYTGKYDSWGQGTQVTVSS”, the “polyreactivity (PSR sort gate)” value was “low polyreactivity”. As to “QVQLVESGGVLVQAGGSLRLSCAASGRTFPTYAMGCSRPAPGKERELVAAITSGGSTYYADTVKGRFTISRDKAKNTVYLQMTSLKPEDTAVYYCAAISTWGTKYDYWGQGTQVTVSS”, the “polyreactivity (PSR sort gate)” value is listed as “high polyreactivity”.

Consider “QDQLVESGGGLVQAGGSLRLSCAASGSTFEYYAMGWYRQAPGKERELVAAITRRGGSTYYADSVKGRFTISRDNAKNTVYLQMNSLKPEDTAVYYCAAVPTQKSQRTHDYCGQGTQVTVSS”, for which the “polyreactivity (PSR sort gate)” value was “low polyreactivity”. Consider “QVQLVESGGGLVQAGGSLRLSCAASGRTFFRYAMGWYRPAPGKERELVAAITRSGGSTYYADSVKGRFTISRDNAKNTVYLLMNSLKPEDTAVYYCAAPREAYSRGYDSWGQGTQVTVSS”, for which the “polyreactivity (PSR sort gate)” value is “high polyreactivity”.
